Target: His6–Gp54^Bas11 (phage Bas11)
Test: ITC; CapRel^SJ46 in the syringe at 200 µM titrated into Gp54^Bas11 in the cell at 10 µM (Gp54^Bas11(G24D) was used at 260 µM); 30 °C; 50 mM HEPES pH 7.5, 500 mM KCl, 500 mM NaCl, 2 mM MgCl2, 1 mM TCEP

Kd: 800 nM | stoichiometry N: 1
Substance: His6–MBP–CapRel^SJ46 (natural protein)

— PMC11578894
